Measurements taken from WO2016008851A1.

Columns and labels:
[1] = target: Endogenous human IL-1B (THP1 supernatants) (human) (UniProt P01584); experiment: cell-based or functional assay
[2] = target: recombinant human IL-1B (human) (UniProt P01584); experiment: cell-based or functional assay

“ACZ885 (disclosed in WO 2002/016436) (antibody)” was tested. Which IC90, Endogenous human IL-1 B (THP1 supernatants), HEK blue [1] did it give?
Its IC90, Endogenous human IL-1 B (THP1 supernatants), HEK blue is 0.292 nM.

And the IC50, rec. human IL-1 B, HEK blue [2]?
Its IC50, rec. human IL-1 B, HEK blue is 0.068 nM.

And the IC50, rec. human IL-1 B, MRC-5 (IL-6 production) [2]?
Its IC50, rec. human IL-1 B, MRC-5 (IL-6 production) is 0.032 nM.

And the IC90, rec. human IL-1 B, HEK blue [2]?
Its IC90, rec. human IL-1 B, HEK blue is 0.503 nM.

What about the IC90, rec. human IL-1 B, MRC-5 (IL-6 production) [2] of the same substance?
The IC90, rec. human IL-1 B, MRC-5 (IL-6 production) was 0.449 nM.
